# From patent US20140274782A1, “AFFINITY REAGENTS AND METHODS FOR DETECTION, PURIFICATION, AND PROTEOMIC ANALYSIS OF METHYLATED PROTEINS” (The Board of Trustees of the Leland Stanford Junior …, priority 2013, published 2014)
# T1: G9a and GLP (Homo sapiens, UniProt Q96KQ7+Q9H9B1)
# T1 sequence (Q96KQ7 2-1210 limits assumed): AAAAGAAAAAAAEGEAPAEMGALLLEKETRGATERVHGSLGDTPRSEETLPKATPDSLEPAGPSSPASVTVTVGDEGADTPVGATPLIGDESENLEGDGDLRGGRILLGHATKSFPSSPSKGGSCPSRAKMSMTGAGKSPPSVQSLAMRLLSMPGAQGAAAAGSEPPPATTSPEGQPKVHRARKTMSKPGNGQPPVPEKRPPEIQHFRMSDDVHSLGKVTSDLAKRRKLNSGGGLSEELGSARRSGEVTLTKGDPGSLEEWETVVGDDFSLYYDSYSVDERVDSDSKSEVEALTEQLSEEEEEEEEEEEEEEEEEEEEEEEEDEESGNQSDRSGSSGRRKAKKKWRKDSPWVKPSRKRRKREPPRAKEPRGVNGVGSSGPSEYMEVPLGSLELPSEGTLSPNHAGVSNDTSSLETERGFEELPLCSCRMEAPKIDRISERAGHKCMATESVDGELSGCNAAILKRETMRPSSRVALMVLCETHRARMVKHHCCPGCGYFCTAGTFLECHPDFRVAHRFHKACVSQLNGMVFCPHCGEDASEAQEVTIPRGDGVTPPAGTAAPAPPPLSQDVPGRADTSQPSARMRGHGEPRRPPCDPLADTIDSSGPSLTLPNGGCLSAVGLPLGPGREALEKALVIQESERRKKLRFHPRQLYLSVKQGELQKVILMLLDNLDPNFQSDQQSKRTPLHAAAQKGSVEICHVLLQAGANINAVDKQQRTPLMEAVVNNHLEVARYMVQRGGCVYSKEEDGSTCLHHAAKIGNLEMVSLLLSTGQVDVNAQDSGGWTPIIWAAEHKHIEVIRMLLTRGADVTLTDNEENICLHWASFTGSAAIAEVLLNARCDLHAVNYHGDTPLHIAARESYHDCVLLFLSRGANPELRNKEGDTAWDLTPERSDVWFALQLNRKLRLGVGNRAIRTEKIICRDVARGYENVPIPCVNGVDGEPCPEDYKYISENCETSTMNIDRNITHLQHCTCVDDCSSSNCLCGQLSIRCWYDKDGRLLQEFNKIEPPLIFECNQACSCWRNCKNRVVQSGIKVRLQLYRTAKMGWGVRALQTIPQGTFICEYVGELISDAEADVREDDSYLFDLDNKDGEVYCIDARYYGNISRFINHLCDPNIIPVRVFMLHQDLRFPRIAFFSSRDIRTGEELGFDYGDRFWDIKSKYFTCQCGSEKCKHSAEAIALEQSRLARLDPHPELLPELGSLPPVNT
# T1 sequence (Q9H9B1 2-1298 limits assumed): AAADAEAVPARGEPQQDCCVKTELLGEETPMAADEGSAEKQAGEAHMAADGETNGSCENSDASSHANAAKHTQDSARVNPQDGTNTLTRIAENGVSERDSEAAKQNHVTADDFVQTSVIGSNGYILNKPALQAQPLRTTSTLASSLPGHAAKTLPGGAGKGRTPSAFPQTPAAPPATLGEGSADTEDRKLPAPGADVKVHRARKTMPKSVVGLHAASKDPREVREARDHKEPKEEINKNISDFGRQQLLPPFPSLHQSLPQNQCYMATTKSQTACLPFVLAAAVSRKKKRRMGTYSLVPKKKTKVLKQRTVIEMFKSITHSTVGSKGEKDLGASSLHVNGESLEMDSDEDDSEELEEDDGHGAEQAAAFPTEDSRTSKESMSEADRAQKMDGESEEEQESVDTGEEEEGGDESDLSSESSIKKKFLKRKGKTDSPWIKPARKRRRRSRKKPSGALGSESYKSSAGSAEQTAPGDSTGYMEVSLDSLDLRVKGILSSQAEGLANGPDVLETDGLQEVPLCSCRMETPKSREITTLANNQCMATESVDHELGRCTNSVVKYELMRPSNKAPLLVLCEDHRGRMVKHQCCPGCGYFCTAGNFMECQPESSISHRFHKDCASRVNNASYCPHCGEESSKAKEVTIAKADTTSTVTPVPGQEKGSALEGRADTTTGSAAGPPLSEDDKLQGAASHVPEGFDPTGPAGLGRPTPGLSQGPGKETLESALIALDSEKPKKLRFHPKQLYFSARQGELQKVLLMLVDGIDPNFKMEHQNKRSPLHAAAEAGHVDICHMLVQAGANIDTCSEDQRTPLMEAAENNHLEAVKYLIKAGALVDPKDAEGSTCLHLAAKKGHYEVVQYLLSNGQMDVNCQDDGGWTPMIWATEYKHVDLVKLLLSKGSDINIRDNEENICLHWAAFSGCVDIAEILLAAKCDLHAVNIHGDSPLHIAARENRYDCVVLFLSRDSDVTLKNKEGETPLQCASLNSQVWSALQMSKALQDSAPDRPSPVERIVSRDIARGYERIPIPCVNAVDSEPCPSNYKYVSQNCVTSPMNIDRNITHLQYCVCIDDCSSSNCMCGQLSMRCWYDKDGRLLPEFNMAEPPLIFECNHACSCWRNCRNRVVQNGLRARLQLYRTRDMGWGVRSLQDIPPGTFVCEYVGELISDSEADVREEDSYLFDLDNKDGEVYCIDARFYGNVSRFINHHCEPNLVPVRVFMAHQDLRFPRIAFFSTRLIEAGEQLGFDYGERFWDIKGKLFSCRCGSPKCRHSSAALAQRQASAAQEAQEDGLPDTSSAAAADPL
# B1: CALD1 (protein, UniProt Q05682 1-793, looked up)
# Caldesmon: MDDFERRRELRRQKREEMRLEAERIAYQRNDDDEEEAARERRRRARQERLRQKQEEESLGQVTDQVEVNAQNSVPDEEAKTTTTNTQVEGDDEAAFLERLARREERRQKRLQEALERQKEFDPTITDASLSLPSRRMQNDTAENETTEKEEKSESRQERYEIEETETVTKSYQKNDWRDAEENKKEDKEKEEEEEEKPKRGSIGENQVEVMVEEKTTESQEETVVMSLKNGQISSEEPKQEEEREQGSDEISHHEKMEEEDKERAEAERARLEAEERERIKAEQDKKIADERARIEAEEKAAAQERERREAEERERMREEEKRAAEERQRIKEEEKRAAEERQRIKEEEKRAAEERQRIKEEEKRAAEERQRARAEEEEKAKVEEQKRNKQLEEKKHAMQETKIKGEKVEQKIEGKWVNEKKAQEDKLQTAVLKKQGEEKGTKVQAKREKLQEDKPTFKKEEIKDEKIKKDKEPKEEVKSFMDRKKGFTEVKSQNGEFMTHKLKHTENTFSRPGGRASVDTKEAEGAPQVEAGKRLEELRRRRGETESEEFEKLKQKQQEAALELEELKKKREERRKVLEEEEQRRKQEEADRKLREEEEKRRLKEEIERRRAEAAEKRQKMPEDGLSDDKKPFKCFTPKGSSLKIEERAEFLNKSVQKSSGVKSTHQAAIVSKIDSRLEQYTSAIEGTKSAKPTKPAASDLPVPAEGVRNIKSMWEKGNVFSSPTAAGTPNKETAGLKVGVSSRINEWLTKTPDGNKSPAPKPSDLRPGDVSSKRNLWEKQSVDKVTSPTKV
# B2: DHX15 (protein, UniProt O43143 1-795, looked up)
# ATP-dependent RNA helicase …: MSKRHRLDLGEDYPSGKKRAGTDGKDRDRDRDREDRSKDRDRERDRGDREREREKEKEKELRASTNAMLISAGLPPLKASHSAHSTHSAHSTHSTHSAHSTHAGHAGHTSLPQCINPFTNLPHTPRYYDILKKRLQLPVWEYKDRFTDILVRHQSFVLVGETGSGKTTQIPQWCVEYMRSLPGPKRGVACTQPRRVAAMSVAQRVADEMDVMLGQEVGYSIRFEDCSSAKTILKYMTDGMLLREAMNDPLLERYGVIILDEAHERTLATDILMGVLKEVVRQRSDLKVIVMSATLDAGKFQIYFDNCPLLTIPGRTHPVEIFYTPEPERDYLEAAIRTVIQIHMCEEEEGDLLLFLTGQEEIDEACKRIKREVDDLGPEVGDIKIIPLYSTLPPQQQQRIFEPPPPKKQNGAIGRKVVVSTNIAETSLTIDGVVFVIDPGFAKQKVYNPRIRVESLLVTAISKASAQQRAGRAGRTRPGKCFRLYTEKAYKTEMQDNTYPEILRSNLGSVVLQLKKLGIDDLVHFDFMDPPAPETLMRALELLNYLAALNDDGDLTELGSMMAEFPLDPQLAKMVIASCDYNCSNEVLSITAMLSVPQCFVRPTEAKKAADEAKMRFAHIDGDHLTLLNVYHAFKQNHESVQWCYDNFINYRSLMSADNVRQQLSRIMDRFNLPRRSTDFTSRDYYINIRKALVTGYFMQVAHLERTGHYLTVKDNQVVQLHPSTVLDHKPEWVLYNEFVLTTKNYIRTCTDIKPEWLVKIAPQYYDMSNFPQCEAKRQLDRIIAKLQSKEYSQY
# B3: KIF2A (protein, UniProt O00139 1-706, looked up)
# Kinesin-like protein KIF2A: MATANFGKIQIGIYVEIKRSDGRIHQAMVTSLNEDNESVTVEWIENGDTKGKEIDLESIFSLNPDLVPDEEIEPSPETPPPPASSAKVNKIVKNRRTVASIKNDPPSRDNRVVGSARARPSQFPEQSSSAQQNGSVSDISPVQAAKKEFGPPSRRKSNCVKEVEKLQEKREKRRLQQQELREKRAQDVDATNPNYEIMCMIRDFRGSLDYRPLTTADPIDEHRICVCVRKRPLNKKETQMKDLDVITIPSKDVVMVHEPKQKVDLTRYLENQTFRFDYAFDDSAPNEMVYRFTARPLVETIFERGMATCFAYGQTGSGKTHTMGGDFSGKNQDCSKGIYALAARDVFLMLKKPNYKKLELQVYATFFEIYSGKVFDLLNRKTKLRVLEDGKQQVQVVGLQEREVKCVEDVLKLIDIGNSCRTSGQTSANAHSSRSHAVFQIILRRKGKLHGKFSLIDLAGNERGADTSSADRQTRLEGAEINKSLLALKECIRALGRNKPHTPFRASKLTQVLRDSFIGENSRTCMIATISPGMASCENTLNTLRYANRVKELTVDPTAAGDVRPIMHHPPNQIDDLETQWGVGSSPQRDDLKLLCEQNEEEVSPQLFTFHEAVSQMVEMEEQVVEDHRAVFQESIRWLEDEKALLEMTEEVDYDVDSYATQLEAILEQKIDILTELRDKVKSFRAALQEEEQASKQINPKRPRAL
# B4: DDX3X (protein, UniProt O00571 2-662, looked up)
# ATP-dependent RNA helicase …: SHVAVENALGLDQQFAGLDLNSSDNQSGGSTASKGRYIPPHLRNREATKGFYDKDSSGWSSSKDKDAYSSFGSRSDSRGKSSFFSDRGSGSRGRFDDRGRSDYDGIGSRGDRSGFGKFERGGNSRWCDKSDEDDWSKPLPPSERLEQELFSGGNTGINFEKYDDIPVEATGNNCPPHIESFSDVEMGEIIMGNIELTRYTRPTPVQKHAIPIIKEKRDLMACAQTGSGKTAAFLLPILSQIYSDGPGEALRAMKENGRYGRRKQYPISLVLAPTRELAVQIYEEARKFSYRSRVRPCVVYGGADIGQQIRDLERGCHLLVATPGRLVDMMERGKIGLDFCKYLVLDEADRMLDMGFEPQIRRIVEQDTMPPKGVRHTMMFSATFPKEIQMLARDFLDEYIFLAVGRVGSTSENITQKVVWVEESDKRSFLLDLLNATGKDSLTLVFVETKKGADSLEDFLYHEGYACTSIHGDRSQRDREEALHQFRSGKSPILVATAVAARGLDISNVKHVINFDLPSDIEEYVHRIGRTGRVGNLGLATSFFNERNINITKDLLDLLVEAKQEVPSWLENMAYEHHYKGSSRGRSKSSRFSGGFGARDYRQSSGASSSSFSSSRASSSRSGGGGHGSSRGFGGGGYGGFYNSDGYGGNYNSQGVDWWGN
# Biological target: T1, G9a and GLP
# Experiment: Triple SILAC pull-down after UNC0638 treatment of 293T cells, DMSO/UNC0638 ratio of protein captured by 3×MBT;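 also: mass spectrometry (Q-Exactive) SILAC quantitation, DMSO/UNC0638 ratio computed after subtracting 3×MBTD355N mutant pull-down background, only proteins with at least twofold 3×MBT over mutant signal considered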
# Assay type: cell-based
# Set-up: cells were treated for 24 hours with UNC0638 at 2.5 μM or DMSO vehicle control; endogenous in cells; host or cells: HEK 293T
# Details: SILAC ratio DMSO/UNC0638 of protein pulled down with 3xMBT; UNC0638 in heavy SILAC media
row,Relative to UNC0638 UNC Heavy,Molecule
1,0.29 log base 2,B1
2,0.13 log base 2,B2
3,0.23 log base 2,B3
4,0.25 log base 2,B4

# Same assay, conditions: SILAC ratio DMSO/UNC0638 of protein pulled down with 3xMBT; UNC0638 in light SILAC media
row,Relative to UNC0638 UNC Light,Molecule
1,0.09 log base 2,B1
2,0.27 log base 2,B2
3,0.15 log base 2,B3
4,0.14 log base 2,B4

# Same assay, conditions: average of UNC Light and UNC Heavy experiments
row,Relative to UNC0638 Average,Molecule
1,0.19 log base 2,B1
2,0.20 log base 2,B2
3,0.19 log base 2,B3
4,0.20 log base 2,B4

# System: 3×MBT domain of L3MBTL1
# Experiment: Triple SILAC pull-down, 3xMBT/3xMBTD355N ratio (cytoplasmic, nuclear and chromatin fractions of 293T cells);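 also: proteins quantified with MaxQuant, requiring at least two unique peptides and quantification in both label directions, normalized to the mean of proteins from a digested loading control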
# Assay type: binding, human
# Details: SILAC ratio, pull-down 3xMBT vs 3xMBTD355N; experiment with UNC0638 in heavy SILAC media
row,Molecule,3xMBT/D355N UNC Heavy
1,B1,3.53 log base 2
2,B2,2.98 log base 2
3,B3,2.05 log base 2
4,B4,2.64 log base 2

# Same assay, conditions: SILAC ratio, pull-down 3xMBT vs 3xMBTD355N; experiment with UNC0638 in light SILAC media
row,Molecule,3xMBT/D355N UNC Light
1,B1,3.50 log base 2
2,B2,2.54 log base 2
3,B3,2.33 log base 2
4,B4,2.58 log base 2
